What was measured:
[1] = target: HLA-DR (DRA1*01:01 / DRB1*11:04), soluble knob-into-hole Fc heterodimer (human); test: ELISA
[2] = target: HLA-DR (DRA1*01:01 / DRB1*04:05), soluble knob-into-hole Fc heterodimer (human); test: ELISA

Substance	fold decline of binding affinity compared to RBD WT [1] [fold]	fold decline of binding affinity compared to RBD WT [2] [fold]
SARS-CoV-2 RBD peptide RBD447-461 of the BA.2.86 variant (from UniProt P0DTC2 447-461)	> 16	> 16
SARS-CoV-2 RBD peptide RBD447-461 of the Omicron BA.5 variant (from UniProt P0DTC2 447-461)	> 16	> 16

— doi:10.1101/2025.06.05.658000
